# Assays:
# [1] = molecular target: T1, mouse ligand (single-chain IL27) (Mus musculus, UniProt O35228+Q8K3I6); test: SPR kinetics of soluble receptors with mouse IL27 ligand; conditions: binding with mouse ligand; gp130 not included
# T1 construct: amino-terminal peptide tag (FLAG in lot A1426F) (N)
# T1 sequence (O35228+Q8K3I6 with tags, fused parts or gaps): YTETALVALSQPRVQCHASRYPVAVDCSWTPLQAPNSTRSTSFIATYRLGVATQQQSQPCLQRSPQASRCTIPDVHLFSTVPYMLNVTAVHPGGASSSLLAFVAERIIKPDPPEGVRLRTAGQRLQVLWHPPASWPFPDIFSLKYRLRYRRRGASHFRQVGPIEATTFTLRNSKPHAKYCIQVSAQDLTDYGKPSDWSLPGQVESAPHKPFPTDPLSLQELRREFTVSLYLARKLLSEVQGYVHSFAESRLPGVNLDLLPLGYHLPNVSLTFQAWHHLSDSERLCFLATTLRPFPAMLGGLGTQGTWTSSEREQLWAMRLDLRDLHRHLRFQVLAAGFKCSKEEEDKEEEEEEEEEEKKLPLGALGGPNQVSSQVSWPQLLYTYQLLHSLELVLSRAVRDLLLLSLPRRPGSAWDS
# Protocol: Kinetic rate and affinity constant values for the mouse (IL27RAm(mFc1), Example 3) and human (IL27RA-Fc5, Example 4) soluble receptors were obtained by surface plasmon resonance (SPR) using an automated instrument (BIACORE 3000; Biacore International AB, Uppsala, Sweden). The mouse soluble receptor was tested against mouse ligand (lot A1418F), and the human soluble receptor was tested against both mouse (A1426F) and human (A1534F) ligands. For determination of the kinetic rate constants for the receptor-ligand interactions, the gp130 molecule was not included as part of the receptor complex.
# The IL27 ligands used in this study were single-chain molecules comprising EBI3 connected by its C-terminus to the N-terminus of IL-27 p28 via a polypeptide linker. Each of the ligands included an amino-terminal peptide tag.
# For the mouse IL27RA study, the soluble receptor was captured onto the chip surface by an isotype-specific anti-mouse Fc antibody (obtained from Jackson ImmunoResearch Laboratories, Inc., West Grove, Pa.) covalently immobilized to the chip (BIACORE CM5 chip) using the standard amine coupling protocol specified by the instrument manufacturer. […]
# All data were assessed using software provided with the instrument (BIACORE Evaluation software v. 3.2). […]
# [2] = Pharmacokinetics of soluble receptors in female C57B1/6 mice; type: in vivo, mouse; conditions: for terminal / circulatory half-life, comparison in words: human Fc5 fusion versus mouse Fc1 fusion
# Protocol: Studies were performed to evaluate the pharmacokinetics of the mouse (IL-27RAm(mFc1)) and human (IL-27RA-Fc5) soluble receptors in female C57B1/6 mice.
# Serum was generated from each sample and analyzed by a qualified enzyme-linked immunosorbant assay (ELISA). The resulting mean serum concentration versus time profiles were then subjected to noncompartmental pharmacokinetic analyses. The following pharmacokinetic parameters were calculated: C0 and Cmax (extrapolated concentration at time zero and maximum serum concentration, respectively), Tmax (time to achieve maximum concentration), t1/2 λz (terminal half-life), AUC0-t (area under the concentration versus time curve from time zero to the last measurable time point), AUCINF (area under the concentration versus time curve extrapolated to infinity), Cl or Cl/F (clearance or clearance divided by bioavailable fraction, respectively), VSS or VZ/F (steady state volume of distribution or volume of distribution divided by the bioavailable fraction, respectively), and F (bioavailable fraction).
substance,measurement,setting,value
"human IL-27RA-Fc5: human IL27RA extracellular domain (amino acids 1 to 512 of SEQ ID NO:5) fused to Fc5, effector minus human gamma1 Fc; SEQ ID NO:3",ka,[1],8.1e+06 M⁻¹ s⁻¹
same,kd,[1],0.0018 s⁻¹
same,AUC0-120,"[2]; IP, 100 μg",1310 µg·h/mL
same,AUCINF,"[2]; IP, 100 μg",1380 µg·h/mL
same,Cl/F,"[2]; IP, 100 μg",0.0725 mL/h
same,Tmax,"[2]; IP, 100 μg",3 h
same,t1/2 λz,"[2]; IP, 100 μg",28.3 h
same,Cmax,"[2]; IP, 100 μg, serum",35200 ng/mL
same,AUC0-120,"[2]; IV, 100 μg",1400 µg·h/mL
same,AUCINF,"[2]; IV, 100 μg",1510 µg·h/mL
same,Cl,"[2]; IV, 100 μg",0.0664 mL/h
same,Vss,"[2]; IV, 100 μg",2.54 mL
same,t1/2 λz,"[2]; IV, 100 μg",34.9 h
same,Co,"[2]; IV, 100 μg, serum",122 µg/mL
same,AUC0-120,"[2]; SC, 100 μg",1130 µg·h/mL
same,AUCINF,"[2]; SC, 100 μg",1210 µg·h/mL
same,Cl/F,"[2]; SC, 100 μg",0.0828 mL/h
same,Tmax,"[2]; SC, 100 μg",6 h
same,t1/2 λz,"[2]; SC, 100 μg",29.3 h
same,Cmax,"[2]; SC, 100 μg, serum",21000 ng/mL
same,"terminal / circulatory half-life, comparison in words",[2]; listed as fusion protein comprising an Fc fragment that had been engineered to remove effe,markedly improved circulatory half-life
same,"terminal / circulatory half-life, comparison in words",[2]; listed as human Fc5 fusion protein,much longer terminal half-life

# Source: patent publication US20100092465A1, “TREATMENT OF GRAFT-VERSUS-HOST DISEASE” (priority 2006, published 2010)
